According to patent US20260250371A1 (ULTRAGENYX PHARMACEUTICAL, published 2026):
Where a chain is given by its changes, count along the chain named. Numbers in names are those of the source. Where “and” joins values, the source holds several entries; their conditions need not be identical. Identical values can stand only once. Like-named read-outs stand apart in the source and are kept apart here. Blank lines part the entries; values can stand above or below the binder they belong to.

How the values were obtained:
[1] = target: T1, recombinant human FGF23 (R179Q) (human, UniProt Q9GZV9 25-251); assay: SPR, antibody captured on hIgG chip, rhFGF23(R179Q) analyte
T1 construct: also called rhFGF23(R179Q); hFGF23(R179Q)
T1 sequence (looked up): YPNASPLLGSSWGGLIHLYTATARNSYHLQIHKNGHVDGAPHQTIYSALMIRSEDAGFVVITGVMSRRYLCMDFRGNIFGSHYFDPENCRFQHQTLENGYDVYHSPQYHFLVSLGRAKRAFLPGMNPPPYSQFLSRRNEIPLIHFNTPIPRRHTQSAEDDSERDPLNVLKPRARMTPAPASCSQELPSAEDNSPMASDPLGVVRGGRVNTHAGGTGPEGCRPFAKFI

[2] = target: T1, recombinant human FGF23 (R179Q); assay: as above; remark: listed apart in the source
[3] = target: T1, recombinant human FGF23 (R179Q); assay: SPR, antibody captured on hIgG chip, human FGF23 analyte
[4] = target: T2, cynomolgus monkey (Macaca fascicularis) FGF23 (R179Q) (cynomolgus monkey (Macaca fascicularis), UniProt Q9GZV9 25-251 (human entry), limits assumed); assay: SPR, antibody captured on hIgG chip, cynoFGF23(R179Q) analyte, single cycle kinetics
T2 construct: also called cynoFGF23; cynoFGF23(R179Q)
T2 chain: T1 sequence (looked up) with D85N, Q92R, Q94W, Y108H, I149R, M195V, G219A, A224P
Procedure: Binding kinetics of 13 antibody variants shown in Table 19 were characterized against cynomolgus monkey (Macaca fascicularis) FGF23 (R179Q) (i.e., “cynoFGF23”) (SEQ ID NO: 372). Antibody variants were expressed at small scale (3 ml) and screened by SPR analysis at a single concentration (100 nM). Experimental setup of SPR analysis for CRC: SPR device—8K+; chip preparation—CM5 hIgG chip: channels—1-8; immobilization concentration—1.5 ug/ml; immobilization method—capture; flow rate—5 μl/min; contact time—60 s; running buffer—1×HBS-EP+pH 7.4; temperature—20° C.: flow rate—50 μl/min; association time—120 s; dissociation time—1800 s; antigen—cynoFGF23(R179Q): top concentration—0.1 μM, 9-pt 3-fold Single Cycle Kinetics.

B1: Burosumab (antibody, human IgG1, kappa, V domains shown)
VH: QVQLVQSGAEVKKPGASVKVSCKASGYTFTNHYMHWVRQAPGQGLEWMGIINPISGSTSNAQKFQGRVTMTRDTSTSTVYMELSSLRSEDTAVYYCARDIVDAFDFWGQGTMVTVSS
VL: AIQLTQSPSSLSASVGDRVTITCRASQGISSALVWYQQKPGKAPKLLIYDASSLESGVPSRFSGSGSGTDFTLTISSLQPEDFATYYCQQFNDYFTFGPGTKVDIKR
notes: Recombinant human IgG1 kappa; also called burosumab-twza; parental burosumab
Kd [1]: 0.0208 nM | Ratio (variant antibody KD/burosumab KD) [1]: 1 | SA (surface activity) [1]: 88.8% | koff [1]: 0.000157 s⁻¹ | kon [1]: 7.22e+06 M⁻¹ s⁻¹

B2: UGX202 (antibody, human IgG1, kappa, V domains shown)
VH: B1 VH with S59E
VL: B1 VL with N92Y
notes: also called HC:S59E, LC:N92Y; S59E/N92Y
Kd [2]: 0.00753 nM and 0.00759 nM and 0.00807 nM | Ratio (variant antibody KD/burosumab KD) [2]: 3 | koff [2]: 8.91e-05 s⁻¹ and 9.8e-05 s⁻¹ and 9.45e-05 s⁻¹ | kon [2]: 1.2e+07 M⁻¹ s⁻¹ (2×) and 1.3e+07 M⁻¹ s⁻¹ | KD ratio (variant antibody KD/burosumab KD) [3]: 3 | Kd [3]: 0.00759 nM | KD ratio (variant antibody KD/burosumab KD) [4]: 3 | Kd [4]: 0.00693 nM | Kd [1]: 0.00759 nM | Ratio (variant antibody KD/burosumab KD) [1]: 3 | SA (surface activity) [1]: 91.6% | koff [1]: 9.8e-05 s⁻¹ | kon [1]: 1.29e+07 M⁻¹ s⁻¹

B4: UGX192 (antibody, human IgG1, kappa, V domains shown)
VH: B1 VH with N52F, V101I
VL: B1 VL
notes: also called HC:N52F, HC:V101I
Kd [2]: 20.6 nM | Ratio (variant antibody KD/burosumab KD) [2]: 0 | SA (surface activity) [2]: 82.3% | koff [2]: 0.0236 s⁻¹ | kon [2]: 1.15e+06 M⁻¹ s⁻¹

B5: UGX182 (antibody, human IgG1, kappa, V domains shown)
VH: B1 VH with S59D, V101I
VL: B1 VL
notes: also called HC:S59D, HC:V101I; S59D/V101I
Kd [2]: 0.00947 nM | Ratio (variant antibody KD/burosumab KD) [2]: 2 | SA (surface activity) [2]: 100% | koff [2]: 0.000141 s⁻¹ | kon [2]: 1.49e+07 M⁻¹ s⁻¹ | KD ratio (variant antibody KD/burosumab KD) [3]: 2 | Kd [3]: 0.00947 nM | KD ratio (variant antibody KD/burosumab KD) [4]: 1 | Kd [4]: 0.0163 nM | Kd [1]: 0.00947 nM | Ratio (variant antibody KD/burosumab KD) [1]: 2 | SA (surface activity) [1]: 100% | koff [1]: 0.000141 s⁻¹ | kon [1]: 1.49e+07 M⁻¹ s⁻¹

B6: UGX164 (antibody, human IgG1, kappa, V domains shown)
VH: B1 VH with S59T
VL: B1 VL
notes: also called HC:S59T
Kd [2]: 0.0336 nM | Ratio (variant antibody KD/burosumab KD) [2]: 1 | SA (surface activity) [2]: 91.9% | koff [2]: 0.00019 s⁻¹ | kon [2]: 5.64e+06 M⁻¹ s⁻¹

B7: UGX157 (antibody, human IgG1, kappa, V domains shown)
VH: B1 VH with I54Y
VL: B1 VL
notes: also called HC:I54Y; I54Y
Kd [2]: 0.00758 nM | Ratio (variant antibody KD/burosumab KD) [2]: 3 | SA (surface activity) [2]: 89.1% | koff [2]: 0.000113 s⁻¹ | kon [2]: 1.49e+07 M⁻¹ s⁻¹ | KD ratio (variant antibody KD/burosumab KD) [3]: 3 | Kd [3]: 0.00758 nM | KD ratio (variant antibody KD/burosumab KD) [4]: 4 | Kd [4]: 0.00573 nM | Kd [1]: 0.00758 nM | Ratio (variant antibody KD/burosumab KD) [1]: 3 | SA (surface activity) [1]: 89.1% | koff [1]: 0.000113 s⁻¹ | kon [1]: 1.49e+07 M⁻¹ s⁻¹

B8: UGX145 (antibody, human IgG1, kappa, V domains shown)
VH: B1 VH
VL: B1 VL with Y94E
notes: also called UGX042; LC:Y94E
Kd [2]: 0.0138 nM and 0.0133 nM | koff [2]: 8.52e-05 s⁻¹ and 9.74e-05 s⁻¹ | kon [2]: 6.42e+06 M⁻¹ s⁻¹ and 7.07e+06 M⁻¹ s⁻¹ | KD ratio (variant antibody KD/burosumab KD) [3]: 2 | Kd [3]: 0.0133 nM | KD ratio (variant antibody KD/burosumab KD) [4]: 2 | Kd [4]: 0.0129 nM | Kd [1]: 0.0133 nM | Ratio (variant antibody KD/burosumab KD) [1]: 2 | SA (surface activity) [1]: 87.4% | koff [1]: 8.52e-05 s⁻¹ | kon [1]: 6.42e+06 M⁻¹ s⁻¹

B9: UGX139 (antibody, human IgG1, kappa, V domains shown)
VH: B1 VH
VL: B1 VL with N92Y
notes: also called UGX038; LC:N92Y
Kd [2]: 0.0164 nM | Ratio (variant antibody KD/burosumab KD) [2]: 1 | SA (surface activity) [2]: 86.2% | koff [2]: 0.000104 s⁻¹ | kon [2]: 6.32e+06 M⁻¹ s⁻¹ | KD ratio (variant antibody KD/burosumab KD) [3]: 1 | Kd [3]: 0.0164 nM | KD ratio (variant antibody KD/burosumab KD) [4]: 1 | Kd [4]: 0.0162 nM

B12: UGX156 (antibody, human IgG1, kappa, V domains shown)
VH: B1 VH with I54F
VL: B1 VL
notes: also called HC:I54F; I54F
Kd [2]: 0.00924 nM and 0.0105 nM | Ratio (variant antibody KD/burosumab KD) [2]: 2 | koff [2]: 9.77e-05 s⁻¹ and 6.25e-05 s⁻¹ | kon [2]: 1.06e+07 M⁻¹ s⁻¹ and 5.94e+06 M⁻¹ s⁻¹ | KD ratio (variant antibody KD/burosumab KD) [3]: 2 | Kd [3]: 0.0105 nM | KD ratio (variant antibody KD/burosumab KD) [4]: 6 | Kd [4]: 0.00415 nM | Kd [1]: 0.0105 nM | Ratio (variant antibody KD/burosumab KD) [1]: 2 | SA (surface activity) [1]: 106% | koff [1]: 6.25e-05 s⁻¹ | kon [1]: 5.94e+06 M⁻¹ s⁻¹

B14: UGX126 (antibody, human IgG1, kappa, V domains shown)
VH: B1 VH
VL: B1 VL with S52D
notes: also called LC:S52D; S52D
Kd [2]: 0.0124 nM | Ratio (variant antibody KD/burosumab KD) [2]: 2 | SA (surface activity) [2]: 86.5% | koff [2]: 0.00013 s⁻¹ | kon [2]: 1.05e+07 M⁻¹ s⁻¹ | KD ratio (variant antibody KD/burosumab KD) [3]: 2 | Kd [3]: 0.0124 nM | KD ratio (variant antibody KD/burosumab KD) [4]: 2 | Kd [4]: 0.0103 nM | Kd [1]: 0.0124 nM | Ratio (variant antibody KD/burosumab KD) [1]: 2 | SA (surface activity) [1]: 86.5% | koff [1]: 0.00013 s⁻¹ | kon [1]: 1.05e+07 M⁻¹ s⁻¹

B16: UGX166 (antibody, human IgG1, kappa, V domains shown)
VH: B1 VH with S59Y
VL: B1 VL
notes: also called UGX068; HC:S59Y
Kd [2]: 0.0224 nM | Ratio (variant antibody KD/burosumab KD) [2]: 1 | SA (surface activity) [2]: 93.1% | koff [2]: 0.000196 s⁻¹ | kon [2]: 8.77e+06 M⁻¹ s⁻¹

Further lines, results first:

Kd [2]: 0.0183 nM | Ratio (variant antibody KD/burosumab KD) [2]: 1 | SA (surface activity) [2]: 95.8% | koff [2]: 0.000253 s⁻¹ | kon [2]: 1.39e+07 M⁻¹ s⁻¹
B3: UGX188 (antibody, human IgG1, kappa, V domains shown)
VH: B1 VH with S57E, S59D
VL: B1 VL
notes: also called HC:S57E, HC:S59D

Kd [2]: 0.00452 nM and 0.00632 nM and 0.00517 nM | koff [2]: 3.65e-05 s⁻¹ and 6.31e-05 s⁻¹ and 5.81e-05 s⁻¹ | kon [2]: 8.08e+06 M⁻¹ s⁻¹ and 9.99e+06 M⁻¹ s⁻¹ and 1.12e+07 M⁻¹ s⁻¹ | KD ratio (variant antibody KD/burosumab KD) [3]: 4 | Kd [3]: 0.00517 nM | KD ratio (variant antibody KD/burosumab KD) [4]: 2 | Kd [4]: 0.0101 nM | Kd [1]: 0.00517 nM | Ratio (variant antibody KD/burosumab KD) [1]: 4 | SA (surface activity) [1]: 83.4% | koff [1]: 5.81e-05 s⁻¹ | kon [1]: 1.12e+07 M⁻¹ s⁻¹
B10: UGX201 (antibody, human IgG1, kappa, V domains shown)
VH: B1 VH with S59E
VL: B1 VL with N92F
notes: also called HC:S59E, LC:N92F; S59E/N92F

Kd [2]: 0.0113 nM and 0.0124 nM and 0.0115 nM | Ratio (variant antibody KD/burosumab KD) [2]: 2 | koff [2]: 0.000145 s⁻¹ and 0.000134 s⁻¹ | kon [2]: 1.3e+07 M⁻¹ s⁻¹ (2×) and 1.1e+07 M⁻¹ s⁻¹ | KD ratio (variant antibody KD/burosumab KD) [3]: 2 | Kd [3]: 0.0115 nM | KD ratio (variant antibody KD/burosumab KD) [4]: 1 | Kd [4]: 0.0229 nM | Kd [1]: 0.0115 nM | Ratio (variant antibody KD/burosumab KD) [1]: 2 | SA (surface activity) [1]: 81.4% | koff [1]: 0.000145 s⁻¹ | kon [1]: 1.26e+07 M⁻¹ s⁻¹
B11: UGX203 (antibody, human IgG1, kappa, V domains shown)
VH: B1 VH with S59E
VL: B1 VL with S52D
notes: also called HC:S59E, LC:S52D; S59E/S52D

Kd [2]: 0.0363 nM and 0.0448 nM | koff [2]: 0.000175 s⁻¹ and 0.00022 s⁻¹ | kon [2]: 4.82e+06 M⁻¹ s⁻¹ and 4.92e+06 M⁻¹ s⁻¹
B13: UGX165 (antibody, human IgG1, kappa, V domains shown)
VH: B1 VH with S59V
VL: B1 VL
notes: also called HC:S59V

Kd [2]: 0.00772 nM | Ratio (variant antibody KD/burosumab KD) [2]: 3 | SA (surface activity) [2]: 86.8% | koff [2]: 9.61e-05 s⁻¹ | kon [2]: 1.24e+07 M⁻¹ s⁻¹ | KD ratio (variant antibody KD/burosumab KD) [3]: 3 | Kd [3]: 0.00772 nM | KD ratio (variant antibody KD/burosumab KD) [4]: 4 | Kd [4]: 0.00617 nM | Kd [1]: 0.00772 nM | Ratio (variant antibody KD/burosumab KD) [1]: 3 | SA (surface activity) [1]: 86.8% | koff [1]: 9.61e-05 s⁻¹ | kon [1]: 1.24e+07 M⁻¹ s⁻¹
B15: UGX175 (antibody, human IgG1, kappa, V domains shown)
VH: B1 VH with A103S
VL: B1 VL
notes: also called HC:A103S; A103S

Kd [2]: 3.08 nM | Ratio (variant antibody KD/burosumab KD) [2]: 0 | SA (surface activity) [2]: 92.7% | koff [2]: 0.0103 s⁻¹ | kon [2]: 3.35e+06 M⁻¹ s⁻¹
B17: UGX190 (antibody, human IgG1, kappa, V domains shown)
VH: B1 VH with S59T, V101L
VL: B1 VL
notes: also called HC:S59T, HC:V101L

Kd [2]: 0.0212 nM | Ratio (variant antibody KD/burosumab KD) [2]: 1 | SA (surface activity) [2]: 85.6% | koff [2]: 0.000134 s⁻¹ | kon [2]: 6.33e+06 M⁻¹ s⁻¹
B18: UGX178 (antibody, human IgG1, kappa, V domains shown)
VH: B1 VH with N31F, S59F
VL: B1 VL
notes: also called HC:N31F, HC:S59F
